Test results as given in patent US20070196354A1, “Method of treating diabetes by inhibiting degradation of at least one of crebl1, atf6, and hnf-4 alpha by htra” (priority 2003, published 2007).
Where a chain is given by its changes, count along the chain named. Names and notes keep the numbering of the source.

T1: HNF-4α (Homo sapiens, UniProt P41235)
T1 construct: expressed in transfected cells; host or cells: HEK293T
T1 sequence (P41235 10-474): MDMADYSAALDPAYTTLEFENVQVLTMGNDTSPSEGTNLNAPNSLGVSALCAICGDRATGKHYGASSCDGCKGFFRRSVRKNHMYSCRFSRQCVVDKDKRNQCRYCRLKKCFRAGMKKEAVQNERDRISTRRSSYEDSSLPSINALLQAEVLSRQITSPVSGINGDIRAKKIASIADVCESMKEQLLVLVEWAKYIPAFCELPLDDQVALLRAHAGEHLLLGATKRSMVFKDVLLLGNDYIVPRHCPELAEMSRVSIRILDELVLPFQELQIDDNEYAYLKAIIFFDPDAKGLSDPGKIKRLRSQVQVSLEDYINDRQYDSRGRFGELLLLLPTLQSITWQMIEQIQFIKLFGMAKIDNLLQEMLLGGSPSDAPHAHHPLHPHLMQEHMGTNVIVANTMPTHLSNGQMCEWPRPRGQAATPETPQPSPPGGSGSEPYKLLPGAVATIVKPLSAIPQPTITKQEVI

T2: ATF6 (Homo sapiens, UniProt P18850)
T2 construct: expressed in transfected cells; host or cells: HEK293T
T2 sequence (P18850 1-670): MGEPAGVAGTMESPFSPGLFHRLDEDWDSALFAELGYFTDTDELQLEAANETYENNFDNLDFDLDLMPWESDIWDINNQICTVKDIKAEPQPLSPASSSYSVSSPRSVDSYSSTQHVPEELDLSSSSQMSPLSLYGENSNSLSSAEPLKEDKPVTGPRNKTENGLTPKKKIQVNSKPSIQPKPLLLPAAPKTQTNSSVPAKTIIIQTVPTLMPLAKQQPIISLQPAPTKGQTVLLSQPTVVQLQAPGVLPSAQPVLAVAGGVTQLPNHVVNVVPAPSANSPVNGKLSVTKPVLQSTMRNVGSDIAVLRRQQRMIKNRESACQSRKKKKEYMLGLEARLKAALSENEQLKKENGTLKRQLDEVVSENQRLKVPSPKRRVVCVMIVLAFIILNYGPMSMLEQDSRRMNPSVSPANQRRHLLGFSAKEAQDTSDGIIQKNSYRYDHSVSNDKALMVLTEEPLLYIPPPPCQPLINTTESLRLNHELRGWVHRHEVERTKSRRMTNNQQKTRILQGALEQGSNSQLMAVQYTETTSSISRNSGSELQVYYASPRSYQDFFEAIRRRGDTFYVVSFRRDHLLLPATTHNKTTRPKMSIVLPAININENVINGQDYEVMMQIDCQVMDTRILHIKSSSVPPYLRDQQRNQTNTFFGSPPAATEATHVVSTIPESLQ

T3: CREBL1 (Homo sapiens, UniProt Q99941)
T3 construct: expressed in transfected cells; host or cells: HEK293T
T3 sequence (Q99941 1-703): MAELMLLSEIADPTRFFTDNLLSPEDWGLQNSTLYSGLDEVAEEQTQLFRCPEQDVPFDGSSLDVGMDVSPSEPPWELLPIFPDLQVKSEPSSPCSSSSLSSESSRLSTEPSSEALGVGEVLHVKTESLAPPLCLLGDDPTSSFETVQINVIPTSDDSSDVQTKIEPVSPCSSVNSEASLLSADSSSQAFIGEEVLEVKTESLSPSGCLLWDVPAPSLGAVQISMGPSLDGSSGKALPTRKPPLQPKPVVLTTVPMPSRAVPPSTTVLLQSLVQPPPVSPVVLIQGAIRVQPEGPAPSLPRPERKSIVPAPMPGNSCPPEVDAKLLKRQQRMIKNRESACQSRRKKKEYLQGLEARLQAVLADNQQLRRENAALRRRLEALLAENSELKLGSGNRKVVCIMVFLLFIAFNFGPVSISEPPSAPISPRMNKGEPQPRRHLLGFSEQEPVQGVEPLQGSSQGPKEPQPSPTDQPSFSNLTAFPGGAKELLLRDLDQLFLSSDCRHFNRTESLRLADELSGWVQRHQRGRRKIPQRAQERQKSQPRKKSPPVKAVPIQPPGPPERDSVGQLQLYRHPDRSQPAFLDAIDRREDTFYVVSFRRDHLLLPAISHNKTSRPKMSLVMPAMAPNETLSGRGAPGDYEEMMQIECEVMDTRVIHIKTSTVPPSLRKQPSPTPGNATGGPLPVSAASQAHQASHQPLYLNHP

B1: mature HtrA2 (ΔAVPS): SEQ ID NO: 8; lacks the N-terminal four amino acid residues (AVPS) of mature HtrA2 (protein)
chain: MPPPASPRSQYNFIADVVEKTAPAVVYIEILDRHPFLGREVPISNGSGFVVAADGLIVTNAHVVADRRRVRVRLLSGDTYEAVVTAVDPVADIATLRIQTKEPLPTLPLGRSADVRQGEFVVAMGSPFALQNTITSGIVSSAQRPARDLGLPQTNVEYIQTDAAIDFGNSGGPLVNLDGEVIGVNTMKVTAGISFAIPSDRLREFLHRGEKKNSSSGISGSQRRYIGVMMLTLSPSILAELQLREPSFPDVQHGVLIHKVILGSPAHRAGLRPGDVILAIGEQMVQNAEDVYEAVRTQSQLAVQIRRGRETLTLYVTPEVTE
modifications: Polypeptide consisting of the same amino acid sequence of SEQ ID NO4 wherein the amino acid residues from the 2nd to the 5th are deleted; mature HtrA2(delta AVPS)
B2: mature HtrA2 (S306A, ΔAVPS): SEQ ID NO: 12; mature HtrA2 (S306A) lacking the N-terminal four amino acid residues (AVPS) (protein)
chain: B1 chain with S170A
modifications: Polypeptide consisting of the same amino acid sequence of SEQ ID NO6 wherein the amino acid residues from the 2nd to the 5th are deleted; mature HtrA2(S306A, delta AVPS)
B3: mature HtrA2 (GVPS): SEQ ID NO: 10; substitution of alanine among the N-terminal four residues of mature HtrA2 with glycine (protein)
chain: MGVPSPPPASPRSQYNFIADVVEKTAPAVVYIEILDRHPFLGREVPISNGSGFVVAADGLIVTNAHVVADRRRVRVRLLSGDTYEAVVTAVDPVADIATLRIQTKEPLPTLPLGRSADVRQGEFVVAMGSPFALQNTITSGIVSSAQRPARDLGLPQTNVEYIQTDAAIDFGNSGGPLVNLDGEVIGVNTMKVTAGISFAIPSDRLREFLHRGEKKNSSSGISGSQRRYIGVMMLTLSPSILAELQLREPSFPDVQHGVLIHKVILGSPAHRAGLRPGDVILAIGEQMVQNAEDVYEAVRTQSQLAVQIRRGRETLTLYVTPEVTE
modifications: Polypeptide consisting of the same amino acid sequence of SEQ ID NO4 wherein the 2nd amino acid residue is substituted by Gly; mature HtrA2(GVPS)
notes: substitution of alanine among the N-terminal four residues of mature HtrA2 with glycine

Columns and labels:
HNF-4α = molecular target: T1, HNF-4α; experiment: Intracellular protease assay, co-expression with HNF-4α in HEK293T cells; format: cell-based; settings: 48 hours
Protocol: (§1) HEK293T cells were cultured to 1.5×10^5 cells/6 cm Dish. Next day, the expression plasmid of HNF-4α was transfected into HEK293T cells together with the expression plasmid of various types of HtrA2 using FuGene 6 (Roche). Each of the expression plasmid of various HtrA2 at 1 μg/Dish was added in combination with HNF-4α expression plasmid at 1 μg/Dish. Forty eight hours later, the cells in which the various types of HtrA2 were co-expressed with HNF-4α were added with 200 μl of lysis buffer B and an equivalent volume of 2×SDS sample buffer (containing 0.1% β-mercaptoethanol), and then subjected to sonication followed by boiling to use as a test sample.
Expression of HNF-4α and the degradation of HNF-4α were detected by western blotting using 10 μl of the test sample thus obtained. Anti-FLAG antibody (Sigma) was used as a primary antibody for detection, and horseradish peroxidase (HRP) labeled anti-mouse IgG antibody (Cell Signaling) was used as a secondary antibody. Detection was carried out using ECL Western Blotting Detection System.

casein = experiment: Casein zymography and protease assay with casein sodium; format: biochemical; settings: HtrA2 types expressed in a cultured cell
Protocol: Determination of the activity of mature HtrA2 and mature HtrA2 (S306A) was carried out with casein zymography and with a protease assay with casein sodium. Casein zymography was carried out according to the protocol (Invitrogen). More concretely, mature HtrA2 and mature HtrA2 (S306A) were mixed under non-reductive condition with equivalent volume of 2×SDS sample buffer, left to stand at room temperature for 10 min, followed by separation with 4-16% zymogram (Blue casein) gel (Zymogram Gel, Invitrogen). After completion of electrophoresis, they were renatured with 2.5% Triton X-100, and then subjected to a degradation reaction of casein in the developing buffer at 37= C. for overnight.
Meanwhile, a protease assay using casein sodium as an substrate was carried out in such that mature HtrA2 or mature HtrA2 (S306A) was mixed with casein sodium in a reaction buffer (150 mM NaCl, 50 mM Tris-HCl (pH 7.5)) so as to the concentration of the former might become 200 μg/ml and the concentration of the latter might become 400 μg/ml, and incubated at 37° C. for reactions. A portion of the reaction solution was sampled at three hours and overnight after initiation of the reaction, mixed with equivalent volume of 2×SDS sample buffer followed by boiling, and then subjected to SDS-PAGE. After that, the degradation of casein sodium was detected by Coomassie Brilliant Blue (CBB) staining.
The enzyme activity of the various types of HtrA2 each of which was expressed in a cultured cell was determined by the protease assay using casein sodium as a substrate (see Example 2).

ATF6 = molecular target: T2, ATF6; experiment: Intracellular protease assay, co-expression with ATF6 in HEK293T cells; format: cell-based; settings: 48 hours
Protocol: as §1, with “to 1.5×10^5 cells/10 cm Dish.” for “to 1.5×10^5 cells/6 cm Dish.”, “plasmid of CREBL1 or ATF6 was transfected” for “plasmid of HNF-4α was transfected”, “combination with CREBL1 expression plasmid or ATF6 expression plasmid” for “combination with HNF-4α expression plasmid”, “co-expressed with CREBL1 or ATF6 were added” for “co-expressed with HNF-4α were added”
(§2) Expression of CREBL1 and ATF6 and the degradation of these proteins were detected by western blotting using 10 μl of the test sample thus obtained. Anti-c-Myc (9E10) antibody was used as a primary antibody for detection, and horseradish peroxidase (HRP) conjugated anti-mouse IgG antibody (Cell Signaling) was used as a secondary antibody. Detection was carried out using ECL Western Blotting Detection System.

CREBL1 = molecular target: T3, CREBL1; experiment: Intracellular protease assay, co-expression with CREBL1 in HEK293T cells; format: cell-based; settings: 48 hours
Protocol: as §1, with “to 1.5×10^5 cells/10 cm Dish.” for “to 1.5×10^5 cells/6 cm Dish.”, “plasmid of CREBL1 or ATF6 was transfected” for “plasmid of HNF-4α was transfected”, “combination with CREBL1 expression plasmid or ATF6 expression plasmid” for “combination with HNF-4α expression plasmid”, “co-expressed with CREBL1 or ATF6 were added” for “co-expressed with HNF-4α were added”
as §2

Row | Molecule | degradation of HNF-4α in cells (band by western blotting) (HNF-4α) | protease activity using casein sodium as a substrate (casein) | degradation of ATF6 in cells (band by western blotting) (ATF6) | degradation of CREBL1 in cells (band by western blotting) (CREBL1)
1 | B1 | the band of HNF-4α was reduced significantly | active type having protease activity | the band of ATF6 was reduced significantly | the band of CREBL1 was reduced significantly
2 | B2 | the reduction of the band of HNF-4α was not observed | inactive type without exhibiting protease activity | the reduction of the band of ATF6 was not observed | the reduction of the band of CREBL1 was not observed
3 | B3 | the band of HNF-4α was reduced significantly | active type having protease activity | the band of ATF6 was reduced significantly | the band of CREBL1 was reduced significantly
